Experimental data published in paper PMC4619830.

Biological target: T1, SoxR (MerR-type HTH transcriptional regulator) (Acinetobacter baumannii AYE) (UniProt C7FFS1)
T1 sequence: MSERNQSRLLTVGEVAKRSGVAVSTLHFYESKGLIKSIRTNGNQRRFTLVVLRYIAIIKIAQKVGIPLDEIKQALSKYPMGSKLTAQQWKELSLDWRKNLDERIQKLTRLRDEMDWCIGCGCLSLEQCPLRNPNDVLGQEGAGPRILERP
Test: EMSA
Settings: not stated (gel shift as described previously, 20)

Sequence: GGCTGCTCGGTATGATGTCGTTAATTAACAGAAGTAAATGCCGCTTCGAGATTTTGTGATGATCAACGAGCGGTATAAAAAAGACAAGTAGAATTAAACAATAAATGTAATTAAGACAAAAACAAAGCGTGATTGAATATTTCCAACAAACCAATAAAAAACCAGTTAACGAGTGTCACTTAAAATTCATGAATTCTTCATGATCATGTCAAACAAAGCA (double strand) [abeD promoter fragment]
- binding: binds
